Experimental data published in patent US20240025977A1 (UNIVERSITY HEALTH NETWORK, published 2024).

Tests used:
[1] = target: FITC-labeled AL09 under amyloid-forming conditions; experiment: cell-based or functional assay
[2] = target: T1, IAPP (islet amyloid polypeptide) amyloid in pancreatic tissue (human, UniProt P10997 34-70); experiment: immunohistochemistry, pancreatic tissue
T1 construct: Tissue section; also called IAPP pancreatic tissue
T1 chain (looked up): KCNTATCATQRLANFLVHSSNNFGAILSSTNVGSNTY

[3] = target: ATTR amyloid in human cardiac tissue (human, UniProt P02766 21-147); experiment: immunohistochemistry, ATTR cardiac tissue
[4] = target: T2, misfolded/unfolded AL12 kappa light chain; experiment: bio-layer interferometry, Octet fit, table inset
T2 construct: also called misfolded AL12
Procedure: (§1) FIGS. 13A-13D are bio-layer interferometry sensorgrams of binding interactions between LX-96 and misfolded (FIG. 13A, 13C) or native kappa light chain variants (FIG. 13B, 13D). Binding of LX-96 with its targets at a range of target concentrations was measured by changes in wavelength (nm) over 2000 seconds (300s association, 1700s dissociation). Association and dissociation curves were fit using Octet Systems Software to determine KD, KD Error, X2 and R2 values (table insets; FIGS. 13A-13D).
(§2) We quantified the monovalent binding affinity of LX-96 using bio-layer interferometry (BLI). LX-96 was loaded onto Anti-Mouse IgG Fc Capture (AMC) biosensors and dipped into a solution of varying concentrations of misfolded AL09 (0-200 nM) or native AL09 (0-3000 nM). From the sensorgram, we observed rapid association of misfolded AL09 with LX-96, followed by a slow dissociation step (FIG. 13A). […] This confirms that LX-96 is capable of binding specifically to the misfolded form of different kappa light chain variants at similar, single-digit nanomolar affinities.

[5] = target: T2, misfolded/unfolded AL12 kappa light …; experiment: BLI (Octet), LX-96 on Anti-Mouse IgG Fc Capture biosensors, misfolded AL12 in solution
Procedure: as §1, §2

[6] = target: T3, misfolded/unfolded AL09 kappa light chain; experiment: BLI (Octet), LX-96 on Anti-Mouse IgG Fc Capture biosensors, misfolded AL09 0-200 nM in solution
T3 construct: Same polypeptide as native AL09, in a chemically unfolded, reduced and alkylated state; also called misfolded AL09; mis/unfolded AL09
Procedure: as §1, §2

- inhibition of AL09 aggregation (FITC fluorescence of the soluble fraction at endpoint), IC50 [1]: < 1000 nM
- binding result [2]: no binding
- binding result [3]: no binding
- Kd [4]: 7.47 nM
- Kd [5]: 7.5 nM
- Kd [6]: 1.12 nM
B1: LX-96 anti-kappa monoclonal antibody (antibody, V domains shown)
VH: QVQLQQPGAELARPGASVKLSCKASGYTFTSFWIQWIKQRPGQGLEWIGSIYPGDGDTRYIQKFRGKATLTADESSSTAYMQLSSLASEDSAIYYCAIVTTAPDYWGQGTTLTVSS
VL: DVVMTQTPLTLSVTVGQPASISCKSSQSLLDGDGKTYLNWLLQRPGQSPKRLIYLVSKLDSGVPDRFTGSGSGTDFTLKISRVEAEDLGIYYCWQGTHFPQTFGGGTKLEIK
notes: Fluorescently labeled in the in vivo localisation assay; also called anti-κ monoclonal antibody
